Data reported in the supplement of paper PMC10126150.
± gives the standard deviation of the averaged measurements.

system: ATP; assay: switch fluorescence ratio, 500 uM ATP over buffer (Cy3 cluster intensity, sum of 5 cycles each) (fold (ratio)); higher = stronger signal-on switching upon ATP binding; sequences stand for … in TCGTCGGCAGCGTCAGATGTGTATAAGAGACAGTTTTTTTTTTTTTTTTTTTTTTTTT…TC; conditions: aptamer strand: ATP DNA aptamer (quencher-CACCTGGGGGAGTATTGCGGAGGAAGG + anchor), 100 nM annealed; ATP concentration: 500 uM
Method in brief: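 The fluorescence ratio divides summed target-cycle Cy3 intensity by summed buffer-cycle Cy3 intensity for each cluster and is averaged per switch-domain sequence. Cy3-labelled switching-strand clusters on a modified Illumina MiSeq flow-cell were annealed to 100 nM quencher-labelled ATP aptamer, then imaged in selection buffer and again after 15 min with 500 uM ATP at 22 °C. Five such cycles were run, with NaOH stripping and re-annealing between them, and clusters outside 100-1000 RFU were excluded.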
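Further: ATP exposure 15 min at 22 °C before imaging.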

Sequence	switch fluorescence ratio
TGGTCCAGAA	0.977 ± 0.016
TGGTCCCTTG	1.12 ± 0.16
TGGTCCGGGG	1.01 ± 0.087
TGGTCGCGTT	0.988 ± 0.043
TGGTCGGCTG	1.007 ± 0.0044
TGGTCGTGGG	1.01 ± 0.032
TGGTCTAGTG	0.968 ± 0.043
TGGTCTATGC	1.05 ± 0.012
TGGTCTTTTA	0.9852 ± 0.0022
TGGTGAGGAG	0.98 ± 0.013
TGGTGCAGGC	0.702 ± 0.023
TGGTGCTTGG	1.04 ± 0.013
TGGTGGCCCG	1.04 ± 0.035
TGGTGGCTTA	0.9827 ± 0.0025
TGGTGGCTTG	0.991 ± 0.022
TGGTGGGAAT	1.02 ± 0.011
TGGTGGGGAA	0.974 ± 0.01
TGGTGGTTCG	0.975 ± 0.061
TGGTGGTTGC	0.96 ± 0.051
TGGTGTAAGT	1.007 ± 0.0052
TGGTGTATGC	1.03 ± 0.059
TGGTGTGTTT	0.978 ± 0.035
TGGTTAAAAG	0.977 ± 0.051
TGGTTAATCG	0.9949 ± 0.0079
TGGTTACAAA	0.997 ± 0.015

Sequence	switch fluorescence ratio
TGGTTACACG	1.06 ± 0.046
TGGTTACCTA	0.987 ± 0.039
TGGTTACGTT	0.983 ± 0.018
TGGTTAGAAA	1.04 ± 0.017
TGGTTAGTGG	1 ± 0.02
TGGTTATTTT	0.998 ± 0.036
TGGTTCCAAA	0.971 ± 0.008
TGGTTCCAGT	1.003 ± 0.0058
TGGTTCTGAC	1.03 ± 0.038
TGGTTCTGTG	1.0262 ± 0.00041
TGGTTGAGGG	1.01 ± 0.013
TGGTTGAGGT	0.963 ± 0.028
TGGTTGAGTA	0.981 ± 0.017
TGGTTGATTG	0.975 ± 0.047
TGGTTGCTCT	0.9891 ± 0.008
TGGTTGGAGC	0.997 ± 0.029
TGGTTGGATG	1.003 ± 0.006
TGGTTGGCGG	1.03 ± 0.062
TGGTTGGGAC	0.9953 ± 0.0089
TGGTTGGGGC	0.986 ± 0.023
TGGTTGTCGT	1.01 ± 0.033
TGGTTGTTT	0.9856 ± 0.0018
TGGTTGTTTG	0.968 ± 0.035
TGGTTTAACA	0.9924 ± 0.003
TGGTTTAGAG	0.979 ± 0.024

Sequence	switch fluorescence ratio
TGGTTTAGGT	0.995 ± 0.028
TGGTTTCA	1.02 ± 0.041
TGGTTTCAGA	0.984 ± 0.019
TGGTTTGATC	1.01 ± 0.026
TGGTTTGGAG	0.984 ± 0.057
TGGTTTGGCT	1.03 ± 0.023
TGGTTTGGGT	0.986 ± 0.026
TGTAAAGATT	1.0093 ± 0.00041
TGTAAAGGAA	0.992 ± 0.024
TGTAAATGGG	0.984 ± 0.024
TGTAACGCTG	0.974 ± 0.057
TGTAACTTCG	1.001 ± 0.0082
TGTAAGAGAT	1.01 ± 0.011
TGTAAGTTTC	1.04 ± 0.073
TGTAATCAAA	1 ± 0.022
TGTAATCTTC	1.01 ± 0.016
TGTAATTGGG	0.9881 ± 0.0015
TGTAATTTGA	0.984 ± 0.021
TGTACGTAGG	1.24 ± 0.21
TGTACGTGGC	1.08 ± 0.086
TGTACTTCTT	1.24 ± 0.3
TGTAGCAGGT	1.155 ± 0.0025
TGTAGGAGGA	1.01 ± 0.017
TGTAGGGCGA	0.99 ± 0.034
TGTAGGGGCA	0.99 ± 0.014

Sequence	switch fluorescence ratio
TGTAGGGGGA	0.999 ± 0.052
TGTAGGGGTC	1.01 ± 0.011
TGTAGGGTCA	0.9819 ± 0.0023
TGTAGGTAAA	0.997 ± 0.029
TGTAGGTGTT	0.999 ± 0.077
TGTAGTAGGT	1.004 ± 0.002
TGTAGTATCG	1.016 ± 0.0045
TGTATAAGGT	0.966 ± 0.023
TGTATGATGG	1.02 ± 0.031
TGTATGGGGA	0.9997 ± 0.004
TGTATGGGGG	0.946 ± 0.038
TGTATGTGAG	0.98 ± 0.054
TGTATTAGTA	0.949 ± 0.0089
TGTATTGCGG	1.02 ± 0.0071
TGTCAGGGGA	1.018 ± 0.007
TGTCCGGGCT	0.999 ± 0.028
TGTCCTGGCT	1.02 ± 0.067
TGTCGACCG	0.99 ± 0.014
TGTCGAGGGG	0.981 ± 0.017
TGTCGGATCG	1 ± 0.013
TGTCGGGCCT	1.03 ± 0.042
TGTCGTGACA	1.006 ± 0.0038
TGTCGTTCTT	0.973 ± 0.013
TGTCGTTTAC	1.05 ± 0.021
TGTCTTACCT	1.147 ± 0.0093
